The target of test [1] is Bunyamwera virus (BUNV) Gc head domain (aa 478–721) (Bunyamwera virus) (UniProt P04505). In words: crystal structure.
The target of test [2] is La Crosse virus (LACV) Gc head domain (aa 477–722), tryptic fragment of the variable region (aa 477–911) (La Crosse virus) (UniProt Q8JPR1). In words: crystal structure.

Bunyamwera virus (BUNV) Gc head domain (aa 478–721), sequence (P04505 478-721): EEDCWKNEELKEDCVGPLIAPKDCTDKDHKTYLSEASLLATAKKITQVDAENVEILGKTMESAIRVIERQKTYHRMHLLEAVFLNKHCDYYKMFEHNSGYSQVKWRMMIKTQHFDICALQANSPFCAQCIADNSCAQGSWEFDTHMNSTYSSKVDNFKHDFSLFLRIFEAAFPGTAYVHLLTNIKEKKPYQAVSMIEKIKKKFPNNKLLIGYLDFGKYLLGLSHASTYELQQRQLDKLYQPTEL
La Crosse virus (LACV) Gc head domain (aa 477–722), tryptic fragment of the variable region (aa 477–911), sequence (Q8JPR1 477-722): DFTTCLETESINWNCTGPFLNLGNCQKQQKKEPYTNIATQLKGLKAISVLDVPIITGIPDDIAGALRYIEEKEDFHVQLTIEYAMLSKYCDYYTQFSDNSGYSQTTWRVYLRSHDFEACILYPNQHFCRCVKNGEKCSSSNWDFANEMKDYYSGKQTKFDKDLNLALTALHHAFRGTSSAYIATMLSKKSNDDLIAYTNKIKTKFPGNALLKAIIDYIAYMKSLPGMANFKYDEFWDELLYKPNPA

In test [1], “Bunyamwera virus (BUNV) Gc head domain (aa 478–721) (from UniProt P04505 478-721) (domain or fragment)” gave a stoichiometry N of 3. Turning to “La Crosse virus (LACV) Gc head domain (aa 477–722), tryptic fragment of the variable region (aa 477–911) (from UniProt Q8JPR1 477-722) (domain or fragment)”, in test [2], the stoichiometry N came to 3.

The stoichiometry N is the number of molecules, sites or subunits per partner or assembly.

(Values after publication PMC6382863.)
